# Measurements as given in the DeepSol protein solubility set.
# Assay: soluble on expression in E. coli; label from the status in PepcDB or PDB records
row,Sequence,soluble on expression in E. coli
1,SLASELHQTQVDLDGLLEVLGRNLYSTPAVAIRELIQNAHDACVRSRLETGRDGDFSIRIQADSHRNQIVITDNGSGLTYEEVLKYLATIGSGYTRVLRDSSHNEDMVGYFGLGFLSAYVVAEKVEVWTTSYQTPEQTWYFSTAGGKKFAISATAPAQVGTTVKLHLREEFYHLAESDLLQGLIERYCCLLRVPIFLNNDDVQVNNLVAPWRLDAATSELQRKKRRLEFAAIFEGAFEPLCAIPIPENNPWSLKGLLWVQDRGGYATSDYRNISVFVRSMFITGECRELLPLWAGFAGGVVESVALSPTASREDIQKNERFYEIRDFLAETLIEGLRTIAANESSVWRRILSRHNQTLLGAALSDDRLFEVMQNDLKIPTTIGDVTLPAYLKQSGGVIYIRNEDKNSQEELLFRAQMKPLVSGYLYAASGFCQKYAHWNHLKAHILGSGDGETKLFTEETVDKAIHDKLAALLLRKNEALSCARFEPAHVPLLVIHDQDVALKKRIERDEADKRIGSAALSLARLHTQAISAEIERRLYVNLNSPLIAAMIDGTQEAAGHLAVAVRAYMESLTHQVDDSDSNFSDELKRFSDALLAITKGEEG,soluble
2,SLENENQLTHQFPTLSRWNPMFISDVHKISFHPHLQRYIGFWMGFPIRWIQIVGYIAAIDIYEGKHVLTVDDCSGMVLRVVFIIQDDFSMSKRAISMSPGNVVCVFGKINSFRSEVELIAQSFEELRDPNDEWKAWQKRMRYKKNLTKISKNHHSIIRT,soluble
3,SLGELFAVFNEKLTIPEQEALMFLYAYMPTGDVTDYTGDYYLENVRLSDQARREMPWGKEIPDDVFRHFVLPIRVNNENLDDSRRVFYNELKDRVKNLSLHDAVLEVNHWCHEKVIYTPSDARTSAPLASVKTAYGRCGEESTFTVAALRSVGIPARQVYTPRWAHTDDNHAWVEAWVDGKWYFFGACEPEPVLNLGWFNAPASRGMLMHTKVFGRYTGQEEIMYETPNYTEINVIDNYAPTAKGSVLVTDAEGQPVADATVEFKVYNYAEFYTVATKHTDRSGHASLTAGKGDMLVWASKDGRFGYSKLSFGKDNELKITLDKNASETYSLPLDIVPPAEGANLPEVTPEQRTENDRRMAQEDSIRNAYVATFITEEQARTFAKENKLDETETVRLLIASRGNHQTLTDFLSDAVKADKAGQAISLLKVVSAKDLRDVSPEVLNDHLNNSGLPASEDFCSNVLNPRVANEMITPYKAFFRKEIPASEAEAFRKNPQALVEWCKKEITINNELNSQRIPMSPMGVWKARVADEKSRNIFFVSMARSLGIPAWIDEVTGKIQYRTFNDNNLKNGKVYDVDFEAAQQTQAPTGTLVARYRPIPSLSDPKYYSHFTLSKFRNGTFQLLNYDEGDVDMGGGATWSNLLKNGARLDTGYYMMVTGTRMASGAVLANVTFFTIEEGKTTTVDLVMRESKDQVQVIGNFNSESTYLPIGTSEPQSILQTCGRGYYVVAVLGAGQEPTNHALRDIAALSGEFEKWGRKMVLLFPSEEQYKKFRPSEFPGLPSTITYGIDVDGAIQKQIAESMKLPNSTILPMFIIGDTFNRVVFVSQGYTIGLGEQLMKVIHGEG,soluble
4,SLIENSHVKKDDIWPSGGQMTVKDLTAKYTEGGNAILENISFSISPGQRVGLLGRTGSGKSTLLSAFLRLLNTEGEIQIDGVSWDSITLEQWRKAFGVIPQKVFIFSGTFRKNLDPYEQWSDQEIWKVADEVGLRSVIEQFPGKLDFVLVDGGCVLSHGHKQLMCLARSVLSKAKILLLDEPSAHLDPVTYQIIRRTLKQAFADCTVILCEARIEAMLECDQFLVIEENKVRQYDSILELYHYPADRFVAGFIGSPKMNFLPVKVTATAIDQVQVELPMPNRQQVWLPVESRDVQVGANMSLGIRPEHLLPSDIADVILEGEVQVVEQLGNETQIHIQIPSIRQNLVYRQNRVVLVEEGATFAIGLPPERCHLFREDGTACRRLHKEPGV,soluble
5,SLIRMIRKFKVKGLRSPSLLIDMILNDTEEGILVVETDGEEQIKDIEKLLKKYNLKYEVDGNVVKIYVGEIKADKTINVVGATCPGPIMMVSDMLSKMKNGEILEIICGKNSLTDLTEGLKGMGNEIIKVEDKGDGTYRILVKKGEKKEEKAAVTKIDELFIINTTGTGNAEKAYATFMMADVALKMNLKPTIFLMMDGASLALKGECDRVKHPAFPKLGDLVRDILSKGVKIYVCELSAEFRGINEKNLEEGFEIAGAPTFLNYLSKPNVRPVWL,soluble
6,SLISYCSDSGDENISCTKKMVVTVTVEGEQLPGEESLLFLNSATDMTVNNGTSVQFSPLRITTSRSAVRYRYPLFYVQNYNAKPYEATVKGSLLNQCNADFNADTATCGLAYDAAGKAIPYSQGFCCDCSMCQTLGLCQPDARANAACNVFGKYTTASCLRFAQRWYSGYTIGGYMTWYTVNLTLSRNVSDSGGAGAAEKVVMRLSPSNNGEVAGEGWDVMARIVGTYAPVDQPLDLTSRMLFAPAIPPNDARVQAGAAEWLLLPTNLVTLDGRECDKVGVSYEAFASQGNKCNLRPGSCLSSQLEDYRTADLQRIAAGNKGQYMATSFGDFNLENDAATSPYISYLAASPAATMISITVSADDLEYTVGLASGKIISTDMNKPTLQAGTADGVMTVMVRNTAAVTGRLVVGTLNCSDGVF,not soluble
7,SLLIVYNEYLIHIYHSFQWAELQCETDSCIKMLLVADPQILGNTFDTKLYWPLANFDSDRHLKRTYKSVVQHAAPDVICFLGDLMDEGSVANDDQFAAYFTRFVNIFSQPTANTIMFYIPGDNDIGGEGLETIKSDRVLRFKQYFNEQDELTIDPMLRILNVNRISMTLPMNSAPSTEEPQPYTVLLSHMPILRWSDPFTYKVIDDFQPNVIFSAHEHKSRHVKTHRNQLTQGAPFEPLNTERSNRHEVVEFDLNYLKDTRELLEFIVPTCSYRMGEMKIGYGYAMFDGDKLRYTVLWTSQRFYQ,soluble
8,SLNEQELQDLQKMVGVAVNALGDIKAKDISVLETQDKTSLFARMIIASGDSTRQVKALANNVAVDLKEAGFEILSTEGDSGEWTLVDAGDLVVHVMLPAVRDFYDIDTLWGGEKPSFHAGMQKPWHAAD,soluble
9,SLNKNARLQQENHFLSLQRSRYDNLCAAIEETRQVRHDIRHHYLQLAALAEKGDMEKIKEYLSSADRKMPSFDFHFCDNQAVDSILGYYSNHAKQEGIPFLAQIDIPDNFLGDEMDICLVLSNLLENAIEASLKTEDSRRKIVIKMYLHHTHILLIQAENNFDAKILEKNGVFQSTKHSGNGIGIQSIRHITERNGGASNFTYKDGEFTAKIMLRI,not soluble
10,SLNPLDSFKSQVEANVTGLGADKDIQALSRIWSRETNRNGYTYNYSWLGRPIIQYPQDIMAMQELIWSIQPDLIIETGIAHGGSLIFSASMLELNAISGGPQDAEVLGIDIDIRQHNREAIEAHPMVKRISMIQGSSIAPEIIEQVKAKAEGKQKILVCLDSNHTHDHVLAELEAYAPLTSVGSYCVVFDTVVEDLPDEMFGDRPWGVGNNPKTAVWEYLKTHPEFEIDKSIQHKLLITVAPDGYLKRLG,soluble
11,SLNRESERDVIKVGIIGDFTGICSELERGKVAAYKLAADEINRMGGINEKKVELLFRDDRSLSELTREAVKELTEEERVDVLMGSTLSPSREIMQHYADQTKTLYLDTQQTEGGVSSHYTFCLSAMPEQQMTQMLAYLLQKYGRKCYVVAADYNYGILSAEWVKYLVHQLGGEIVGVEYLDDRITDFNPLIDRILQLEADILFSICVFPNHDAFYLQWHQRGLNHIPNASTMVAAEAYQNVRFAPPVLENMYVMASFIEELNTPAAQRFVKKFRAAYDHREVPYMSMDTETVYTAMYVYKRAVELAGTTDTEEVITALESGAVYVDGPGGRVTVRGEDHHTSRSLSCFRINNQHRAEELFCTNPIHSDYIESMIEQTMGVKGGIKAMGANAPSTQYNMLLNKFRWHPSEG,soluble
12,SLPPLNSLISQFEGRVYDQIINFNWHSKPENLKVIIIDIDEKSLEQEGRWPWPRSKIAELLNKLQENGVVTVGFDIVMSEAETNYALGLIEKLSQFSGKMTTDQKQLIATLNSVANQVDNDQTLVNALGKNNAILGFFFHNSEGIRKGSLPPPLRDTDSNPLLASKLSVYQFTNFNGNLAAFTAAATSGGFVTNLPDKDGVVRHALLLANYKNNLYPSLSLAIAMNYLLTDKVNLKKYNNELTGIELDGLQIPTNRKGQILIPFWGGPGTLNYYSATDILNNQFNPDELAGSIALVGSSITLLSDLHHTPVAQLFPGVEIVGNIVKGLVEQKIPREFDWESLQG,not soluble
13,SLPRDENMPLIQVIDDDVSMLILLKDALESKGWMVMANTEPEKAVDQFFDMNPDCLIIDVNLPGKSGFHVLEDIQKHTNKKFIPKLMISIMNDRETRIKAYRLGADDFISKPIDLEEFLIKVERHLDRKQIFDQSVLIDELTQVYNRRFLKDSLKRYLKELERSNQYFSIAVLDLDHFKQVNDMYGHPAGDRILSEFAQYLKDHVRIGDIVFRYGGEEFILLLPRTNDHDSKEVVSRLLSGFSSRTFIEGGAELKMTFSAGVYMVHDPSATVAEAIKTADQALYKAKRNGRARVESANKLIGGHSRKVLNVSVIDDDAIIRTMLMKILQSMEFEHTSLDIQVYEDGQKFLQSGRMEQKGEHFLILDGIMPVMDGTEVLQKVKENRNASRVHVLMLTGRKTEYDIARALKLGADDYVTKPFSITELQARIHRLIQRMSEG,soluble
14,SLQDFWCSTLVKGVIYGSYSVSEMFPKNFTNCTWTLENPDPTKYSIYLKFSKKDLSCSNFSLLAYQFDHFSHEKIKDLLRKNHSIMQLCNSKNAFVFLQYDKNFIQIRRVFPTNFPGLQKKGEEDQKSFFEFLVLNKVSPSQFGCHVLCTWLESCLKSENGRTESCGIMYTKCTCPQHLGEWGIDDQSLILLNNVVLPLNEQTEGCLTQELQTTQVCNLTREAKRPPKEEFGMMGDHTIKSQRPRSVHEKRVPQEQADAAKFMAQTG,soluble
15,SLRKLRFTRSPYTSARLGQPVDASLLLCNGGRRRFRGQVRDAWPPSARAQPHTHDVDVAAGQRQQVHTALRPVRRGDQRAAMVTARSIGPLGLAGRQSSQSVPGLVRVLPPFLSRKHLPSRLAKLREIDGLLPTLIRGQGTEFDSLREYVVGDDVRSIDWRASARRADVMVRTWRPERDRRVVIVLDTGRMAAGRVGVDPTAADPAGWPRLDWSMDAALLLAALASRAGDHVDFLAHDRISRAGVFGASRSELLAQLVDAMAPLRPALIESDWHAMIATILRRTRRRSLVVLLTDLNATALDEGLLPVLPQLSARHHVLVAAVADPRVDQLAAGRSDAAAVYDAAAAERARNDRRAIASQLRRGGVDVIDAPPAEIAPGLADRYLAMKATGRL,not soluble
16,SLRVYIYEYAVATGDEEFLAEGRAMLESLLRAFAKSGYETLTVAHPSVGVRWADEVLRDETQALECADLTLVIAPESDGLLESKVREYSRETEVIGPTPRAIRVAADKRKTEDALRDARSFQLPTREADVMVSKPADGAGSEGVRIGRGELSRELIPGSHHSLLCVSDGETVDVLGINDQFVAFAGRELVYLGGRTPSDHRELTRIARDIAEEVVERIPGLVGLFGVDLVMKGGEPYLIEVNPRPTTPTVAAALEHPEAVVRSLLEGPTGKVLRYRREYVYVKRGAEALVPEKFEVVEDFHGLRVYRG,soluble
17,SLSFLYFNDNSKIANAPLKNRFEKTQKESLIIKNNNEDKKAKSKPKFYLIIDDVGYDEFMLEQFIKLNLKITYAIIPFLPKSMSLYKKLKNANKTVIIHFPMQSKHRNSIEKFHINIKDKKEEIHKKIEKAFKKYPDAKIMNNHMGSLITSNKDLMKIILEKLKEIDRYFFDSVTIAGSVPEIIGKEIGVKVEKRDVFLDSKDTEESVTKELEKAKNIARKNGMVKVIGHIWSKNTLKVLKKEGPDLNQEFEFDNLLNLYEETIR,soluble
18,SLSGNYLPRNTLVESLGHAMLKLSGWKIEGQLPALDKFVVIGAHHTSNWDFVAFLAAKFVLRLNARWFGKHTLFNGPLGGLMRRWGGIPIQRHLKLNTVDQAIQAFREHREFMLIIAPEGTRKKVDRWRMGFYHIARGAGVPVVPAALDYENRRIVIGEPFWPTGNEDADLCSLIGFYRPFIPKKPHYAFLGDEG,not soluble
